We go through 14 molecules from US20240409906, “INTEGRASES, LANDING PAD ARCHITECTURES, AND ENGINEERED CELLS COMPRISING THE SAME” (Asimov Inc., published 2024).

What all share (assay): cell_activity; attB x attP EGFP inversion reporter, HEK293FT
One data set has as its target Int26 (Clostridium botulinum F str. Langeland). The note with it: tags: C-terminal GS linker-SV40 NLS.
In the next data set the target is T1, Int30 (Bacillus cereus AH187).
T1 chain: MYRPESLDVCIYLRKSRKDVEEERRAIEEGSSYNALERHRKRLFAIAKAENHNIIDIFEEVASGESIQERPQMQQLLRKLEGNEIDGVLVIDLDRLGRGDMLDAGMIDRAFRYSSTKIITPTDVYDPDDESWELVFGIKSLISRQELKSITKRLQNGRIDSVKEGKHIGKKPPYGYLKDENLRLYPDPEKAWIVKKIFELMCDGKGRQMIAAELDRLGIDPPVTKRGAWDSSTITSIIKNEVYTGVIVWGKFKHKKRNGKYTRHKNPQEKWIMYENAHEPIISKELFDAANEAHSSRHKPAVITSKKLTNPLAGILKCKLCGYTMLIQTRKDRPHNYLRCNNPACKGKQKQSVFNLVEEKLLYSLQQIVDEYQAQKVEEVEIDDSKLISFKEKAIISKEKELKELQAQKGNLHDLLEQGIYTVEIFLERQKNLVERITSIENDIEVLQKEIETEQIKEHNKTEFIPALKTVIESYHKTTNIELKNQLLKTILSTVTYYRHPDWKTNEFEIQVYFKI
The note with it: tags: C-terminal GS linker-SV40 NLS; chain copies: 4.

The next data set addresses T2, Int5 (Streptomyces phage PhiK38-1).
T2 chain: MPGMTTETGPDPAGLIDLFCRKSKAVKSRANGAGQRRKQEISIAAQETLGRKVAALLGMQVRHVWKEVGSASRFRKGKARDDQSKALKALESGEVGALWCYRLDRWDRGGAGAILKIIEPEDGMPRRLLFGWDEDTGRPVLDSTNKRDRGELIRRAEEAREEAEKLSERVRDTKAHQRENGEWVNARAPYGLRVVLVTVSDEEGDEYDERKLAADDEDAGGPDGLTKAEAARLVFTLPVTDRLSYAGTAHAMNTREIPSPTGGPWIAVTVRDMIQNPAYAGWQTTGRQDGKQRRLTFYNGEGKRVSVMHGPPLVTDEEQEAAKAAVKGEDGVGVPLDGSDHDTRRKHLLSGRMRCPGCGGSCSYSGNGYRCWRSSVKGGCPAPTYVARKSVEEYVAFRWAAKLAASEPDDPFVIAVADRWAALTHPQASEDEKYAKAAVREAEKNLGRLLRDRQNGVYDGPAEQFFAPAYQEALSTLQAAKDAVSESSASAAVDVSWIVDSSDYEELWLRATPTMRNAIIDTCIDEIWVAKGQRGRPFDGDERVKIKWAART
Conditions: tags: C-terminal GS linker-SV40 NLS.

A further data set deals with T3, Int4 (Streptococcus equi subsp. equi 4047).
T3 chain: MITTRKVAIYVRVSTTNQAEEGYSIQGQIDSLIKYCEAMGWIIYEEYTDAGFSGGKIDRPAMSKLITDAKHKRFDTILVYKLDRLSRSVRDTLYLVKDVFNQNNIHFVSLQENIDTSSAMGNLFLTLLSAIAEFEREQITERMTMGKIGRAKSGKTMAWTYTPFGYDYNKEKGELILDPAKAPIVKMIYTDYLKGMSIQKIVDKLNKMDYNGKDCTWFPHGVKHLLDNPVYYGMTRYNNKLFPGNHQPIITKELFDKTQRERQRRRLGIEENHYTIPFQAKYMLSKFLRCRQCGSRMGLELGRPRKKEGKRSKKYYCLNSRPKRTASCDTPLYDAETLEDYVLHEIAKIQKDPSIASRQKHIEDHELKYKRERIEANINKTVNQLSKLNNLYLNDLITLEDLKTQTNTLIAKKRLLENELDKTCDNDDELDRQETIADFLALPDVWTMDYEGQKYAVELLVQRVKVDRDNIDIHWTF
Conditions: tags: C-terminal GS linker-SV40 NLS.

For another data set, the target named is T4, Int29 (Bacillus weihenstephanensis KBAB4).
T4 chain: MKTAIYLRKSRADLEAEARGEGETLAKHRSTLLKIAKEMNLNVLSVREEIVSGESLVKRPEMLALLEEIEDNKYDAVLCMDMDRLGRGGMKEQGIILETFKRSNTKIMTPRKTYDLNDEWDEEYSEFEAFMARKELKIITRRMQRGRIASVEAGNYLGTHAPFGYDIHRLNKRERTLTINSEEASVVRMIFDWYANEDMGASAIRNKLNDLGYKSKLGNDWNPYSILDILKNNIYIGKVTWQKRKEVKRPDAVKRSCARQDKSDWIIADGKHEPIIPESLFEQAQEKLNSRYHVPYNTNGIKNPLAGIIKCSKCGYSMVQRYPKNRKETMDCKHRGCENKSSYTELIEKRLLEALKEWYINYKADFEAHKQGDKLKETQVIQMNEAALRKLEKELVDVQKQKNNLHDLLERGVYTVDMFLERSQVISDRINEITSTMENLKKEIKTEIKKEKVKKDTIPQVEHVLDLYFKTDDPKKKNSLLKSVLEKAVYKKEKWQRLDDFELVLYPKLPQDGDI
The note with it: tags: C-terminal GS linker-SV40 NLS; chain copies: 4.

Another data set deals with T5, Int32 (Rhodococcus jostii RHA1).
T5 chain: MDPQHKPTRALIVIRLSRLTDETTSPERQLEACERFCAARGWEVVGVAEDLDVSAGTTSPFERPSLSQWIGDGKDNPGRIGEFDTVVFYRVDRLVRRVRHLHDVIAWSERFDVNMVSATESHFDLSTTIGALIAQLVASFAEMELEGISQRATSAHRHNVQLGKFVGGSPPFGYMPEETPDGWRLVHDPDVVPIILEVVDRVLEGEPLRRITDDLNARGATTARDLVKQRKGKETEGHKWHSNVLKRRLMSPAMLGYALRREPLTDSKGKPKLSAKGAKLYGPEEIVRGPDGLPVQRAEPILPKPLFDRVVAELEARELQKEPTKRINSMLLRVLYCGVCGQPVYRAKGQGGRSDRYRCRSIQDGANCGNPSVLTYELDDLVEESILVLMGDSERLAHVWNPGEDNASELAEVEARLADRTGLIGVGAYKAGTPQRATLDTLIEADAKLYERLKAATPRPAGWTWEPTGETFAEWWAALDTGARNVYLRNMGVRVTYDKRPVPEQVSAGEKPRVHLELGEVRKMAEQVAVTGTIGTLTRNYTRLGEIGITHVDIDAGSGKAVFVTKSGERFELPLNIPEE
The note with it: tags: C-terminal GS linker-SV40 NLS; chain copies: 4.

The target of the next data set is T6, Int23 (Clostridium difficile 630).
T6 chain: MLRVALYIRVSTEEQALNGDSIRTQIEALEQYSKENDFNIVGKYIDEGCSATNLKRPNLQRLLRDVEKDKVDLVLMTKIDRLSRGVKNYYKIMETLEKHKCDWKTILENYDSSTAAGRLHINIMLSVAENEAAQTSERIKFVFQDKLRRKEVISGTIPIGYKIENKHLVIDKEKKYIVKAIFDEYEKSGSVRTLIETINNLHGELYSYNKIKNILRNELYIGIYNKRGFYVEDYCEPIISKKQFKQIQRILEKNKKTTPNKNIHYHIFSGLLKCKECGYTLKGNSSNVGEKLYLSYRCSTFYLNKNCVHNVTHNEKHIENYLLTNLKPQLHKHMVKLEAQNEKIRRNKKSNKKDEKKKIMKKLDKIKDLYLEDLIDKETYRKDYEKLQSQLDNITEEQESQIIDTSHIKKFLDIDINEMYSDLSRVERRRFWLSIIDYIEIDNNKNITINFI
Conditions: tags: C-terminal GS linker-SV40 NLS.

B1: Int26 attB (dsDNA)
DNA 1: AGAAATAGACCTTTCAACTGGACAAGGTGCTGATAAAACTATGCAGCAAGTCTTAAGTAAA
DNA 2: TTTACTTAAGACTTGCTGCATAGTTTTATCAGCACCTTGTCCAGTTGAAAGGTCTATTTCT
On to B1, for which the binding signal with Int26 was 0.204 fraction of Bxb1.

B2: Int30 attB (dsDNA)
DNA 1: GTAATATGTTTGGATATGGGGAAGTGAATCAGTACAACCGCCACAGTACCCTCATGTCAGCC
DNA 2: GGCTGACATGAGGGTACTGTGGCGGTTGTACTGATTCACTTCCCCATATCCAAACATATTAC
As to B2, the binding signal with Int30 was 1.29 fraction of Bxb1.

B3: Int5 attB (dsDNA)
DNA 1: GAGCGCCGGATCAGGGAGTGGACGGCCTGGGAGCGCTACACGCTGTGGCTGCGGTCGGTGC
DNA 2: GCACCGACCGCAGCCACAGCGTGTAGCGCTCCCAGGCCGTCCACTCCCTGATCCGGCGCTC
B3: the binding signal with Int5 was 0.152 fraction of Bxb1.

B4: Int4 attP (dsDNA)
DNA 1: CAAAAATTACAAAGTTTTCAACCCTTGATTTGAATTAGCGGTCAAATAATTTGTAATTCGTTT
DNA 2: AAACGAATTACAAATTATTTGACCGCTAATTCAAATCAAGGGTTGAAAACTTTGTAATTTTTG
In the case of B4, the binding signal with Int4 is 1.85 fraction of Bxb1.

B5: Int29 attB (dsDNA)
DNA 1: TTTGTAGCCATTAGGCGCATTAGGTTGACGCCATTAAGCCCTAAAGCATCATTCGTCGAAAC
DNA 2: GTTTCGACGAATGATGCTTTAGGGCTTAATGGCGTCAACCTAATGCGCCTAATGGCTACAAA
In the case of B5, in the data set with Int29, the binding signal is 2.92 fraction of Bxb1.

B6: Int32 attP (dsDNA)
DNA 1: CTATGTGGTGGTAATAGCGAGTAGGGGACTACTCGCTCCAGGTACATTAACACCATGGA
DNA 2: TCCATGGTGTTAATGTACCTGGAGCGAGTAGTCCCCTACTCGCTATTACCACCACATAG
Consider B6, for which the binding signal with Int32 is 0.137 fraction of Bxb1.

B7: Int29 attP (dsDNA)
DNA 1: CGTCACCTTGTTGGCGTAATTAGATTTACTCCAACAGGGTGATGACAAAGCTAATGAATTTT
DNA 2: AAAATTCATTAGCTTTGTCATCACCCTGTTGGAGTAAATCTAATTACGCCAACAAGGTGACG
As to B7, the binding signal in the data set with Int29 is 2.92 fraction of Bxb1.

B8: Int30 attP (dsDNA)
DNA 1: ATAATAGTGTATATGGTAGAGAATTAAACCAGTTTAATACTCCACCATGTACACGCAGTGAG
DNA 2: CTCACTGCGTGTACATGGTGGAGTATTAAACTGGTTTAATTCTCTACCATATACACTATTAT
With B8, in the data set with Int30, the binding signal is 1.29 fraction of Bxb1.

B9: Int32 attB (dsDNA)
DNA 1: ATCGCGCAGAACGGTGCGGTGATCAGTGAGTACGCACCGGGCACGACACCGGCGAAGCATCG
DNA 2: CGATGCTTCGCCGGTGTCGTGCCCGGTGCGTACTCACTGATCACCGCACCGTTCTGCGCGAT
B9: the binding signal with Int32 was 0.137 fraction of Bxb1.

B10: Int23 attP (dsDNA)
DNA 1: TATATAATTATTTGGACTAACATATAGTATCCACTTGGCTATTATTAGTTAGTCCAAATAAATA
DNA 2: TATTTATTTGGACTAACTAATAATAGCCAAGTGGATACTATATGTTAGTCCAAATAATTATATA
For B10, the binding signal in the data set with Int23 is 0.201 fraction of Bxb1.

B11: Int4 attB (dsDNA)
DNA 1: TTCCAAAGAGCGCCCAACGCGACCTGAAATTTGAATAAGACTGCTGCTTGTGTAAAGGCGATGATT
DNA 2: AATCATCGCCTTTACACAAGCAGCAGTCTTATTCAAATTTCAGGTCGCGTTGGGCGCTCTTTGGAA
As for B11, the binding signal with Int4 was 1.85 fraction of Bxb1.

B12: Int23 attB (dsDNA)
DNA 1: TATTCTAAGTAATGTAGTTTTACCACATCCACTAGGTCCGAGTAAACATAGAAATTCCCCT
DNA 2: AGGGGAATTTCTATGTTTACTCGGACCTAGTGGATGTGGTAAAACTACATTACTTAGAATA
Regarding B12, in the data set with Int23, the binding signal is 0.201 fraction of Bxb1.

B13: Int26 attP (dsDNA)
DNA 1: AAATATAACCTGTGTATTGAAACAAGGTGCTGATAAAACCCTTTCATAAACACAAGTAAATA
DNA 2: TATTTACTTGTGTTTATGAAAGGGTTTTATCAGCACCTTGTTTCAATACACAGGTTATATTT
With B13, the binding signal in the data set with Int26 is 0.204 fraction of Bxb1.

B14: Int5 attP (dsDNA)
DNA 1: CCCTAATACGCAAGTCGATAACTCTCCTGGGAGCGTTGACAACTTGCGCACCCTGATCTG
DNA 2: CAGATCAGGGTGCGCAAGTTGTCAACGCTCCCAGGAGAGTTATCGACTTGCGTATTAGGG
As for B14, the binding signal with Int5 was 0.152 fraction of Bxb1.
